Measured values from US10274499B2, “SH2 domain variants” (THE UNIVERSITY OF WESTERN ONTARIO, priority 2012, dated 2019).

Key:
[1] = tested on: seven fluorescein-labeled pTyr-containing peptides; test: in-solution fluorescence polarization binding assay, set of seven peptides; details: average over seven peptides, relative to the wild type of the same SH2 domain
Method: Each peptide was synthesized on the TentaGel amide resin (INTAVIS Inc.) and N-terminally labeled with fluorescein using NHS-fluorescein (Thermo Fisher Scientific). Each of the 13 variant and the wild-type SH2 domain was produced by overexpression in the Escherichia coli BL21(DE3) strain cultured in LB media (EMD Chemicals). Expression was induced by 0.3 mM isopropyl β-D-1-thiogalactopyranoside (IPTG), and the cell culture was incubated for 5 hours at 37° C. The cells were harvested by centrifuge, and broken on ice, in buffer solution containing 20 mM sodium phosphate, 0.1 M NaCl, 20 mM imidazole, 1 mg/ml lysozyme and 1% Triton-X 100, adjusted at pH 7.8. Affinity purification was performed with the Ni-NTA agarose resin (Qiagen Inc.), according to the manufacturer's instruction. […] Measurements of fluorescence polarization were conducted by titrating the SH2 domain concentration, while keeping the peptide concentration constant. Kd values were calculated with the GraphPad Prism software, by assuming the one-site binding model (GraphPad Software).
The determined Kd values of interaction between the 14 SH2 domains (including the wild-type) and seven peptides were listed in FIG. 7(a). […]
Fluorescence polarization assay was conducted to determine Kd values of the interaction between the wild-type or variant Src SH2 domain and seven fluorescein-labeled pTyr-containing peptides (FIG. 9a).

[2] = biological target: T1, EGFR (Homo sapiens, UniProt P00533); test: immunoprecipitation of GFP-fused SH2 domains with EGFR in HEK 293 cells; format: cell-based; details: GFP-fusion expressed in HEK 293 cells, EGF 100 ng/ml, anti-GFP and anti-EGFR antibodies
T1 construct: endogenous in cells; host or cells: HEK 293
From the text: The three variant SH2 domains mentioned in the previous sentence were dubbed as 8V/10A/15L-substituted SH2 domains, or the TrM SH2 domains, in the following descriptions, as well as in FIG. 11 and FIG. 12. The wild-type (Wt) and TrM SH2 domains, subcloned into the pEGFPC2 vector, were expressed in the HEK 293 cells as a GFP-fusion protein. Methods used in this and the following sections are described below.
Anti-GFP rabbit polyclonal antibody was purchased from Sigma-Aldrich. Anti-EGFR rabbit polyclonal antibody was purchased from Millipore. Anti-p44/42 MAPK (Erk1/2) mouse monoclonal antibody, and anti-phospho-p44/42 MAPK (Thr202/Tyr204) mouse monoclonal antibody were purchased from Cell Signaling. HEK 293 cells were grown in Dulbecco's modification of Eagle's medium (DMEM, Sigma-Aldrich) supplemented with 10% fetal bovine serum (FBS, SAFC Biosciences), 50 units/ml penicillin and 50 μg/ml streptomycin (GIBCO Invitrogen Corp.) in a humidified atmosphere of 5% CO2 in air at 37° C. EGF (Invitrogen) at a final concentration of 100 ng/ml was added to the medium at the indicated time point. Transient transfections were carried out with jet-PEI (PolyPlus-Transfection; Illkirch, France) according to manufacturer's instruction. […]

Substance	average affinity increase, Kd[wild-type] divided by Kd[variant] [1]	binding to EGFR (immunoprecipitation) [2]
T8V: variant Fyn SH2 domain, Thr at position 8 to Val; SEQ ID NO:5 (RKDAERQLLSFGNPRGTFLIRESETVKGAYSLSIRDWDDMKGDHVKHYK; Synthetic construct T8V)	1.4 fold	
wild-type Grb2 SH2 domain: polypeptide between Met55 and Pro158 of the human Grb2 [reference compound]		Weak binding
wild-type Src SH2 domain: human Src SH2 domain between Asp144 and Lys252; SEQ ID NO:18 [reference compound]		did not show detectable binding
